In US20030114404, “Vascular endothelial growth factor (VEGF) nucleic acid ligand complexes” (Gilead Sciences, Inc., published 2003):
Where a chain is given by its changes, count along the chain named.

B1: VP40.18 (ssRNA)
RNA: GGGAGGACGAUGCGGUAGUAAGUUAUUGAAAGCGCAUCUCUAUCAACUCUCGGCCCAGACGACUCGCCCGA
modifications: 2'-F pyrimidines
B2: VP30.65 (ssRNA)
RNA: GGGAGGACGAUGCGGAAAACGCUUUUCUUGGCCCCCUCGUUGCGCCAGACGACUCGCCCGA
modifications: 2'-F pyrimidines
B3: VP40.24 (ssRNA)
RNA: GGGAGGACGAUGCGGGAUGCUGAGUGAGGAAGUCUGAUUGUUGCAGUAUUGGCGUCAGACGACUCGCCCGA
modifications: 2'-F pyrimidines
B4: VP30.35 (ssRNA)
RNA: GGGAGGACGAUGCGGUGAAUGAGCUGACGACCCUGAAUUGCUCGUCAGACGACUCGCCCGA
modifications: 2'-F pyrimidines
B5: VP30.27 (ssRNA)
RNA: GGGAGGACGAUGCGGAAGAAUUGGAUAUAUCGUUCACCCCCACCUCAGACGACUCGCCCGA
modifications: 2'-F pyrimidines
B6: VP40.11 (ssRNA)
RNA: GGGAGGACGAUGCGGAAGGAAGAUGUUGAUCGUUUGACGUGAUGUGGAUCCGCGUCAGACGACUCGCCCGA
modifications: 2'-F pyrimidines
B7: VP40.5 (ssRNA)
RNA: GGGAGGACGAUGCGGUUGAUCGAGGUUCUAAAGCCUAUUUCCUGACUUUCUCCCCCAGACGACUCGCCCGA
modifications: 2'-F pyrimidines
B8: VP40.25 (ssRNA)
RNA: GGGAGGACGAUGCGGAAUGGAAUUUGAGUCGAUCUAGAAUGCGUCGUAUGGGCUCAGACGACUCGCCCGA
modifications: 2'-F pyrimidines
B9: VP40.3 (ssRNA)
RNA: GGGAGGACGAUGCGGCAAAAGUUUGAGUUGAUCUGAUACGUUUCAGUAUUGGCGUCAGACGACUCGCCCGA
modifications: 2'-F pyrimidines
B10: VP30.6 (ssRNA)
RNA: GGGAGGACGAUGCGGAACGGAAUUCUUGGAUACACACCUCGUCCUCAGACGACUCGCCCGA
modifications: 2'-F pyrimidines
B11: VP30.63 (ssRNA)
RNA: GGGAGGACGAUGCGGAACCAAUAGAGAUCUUCGGCUGCCCCGCGUCAGACGACUCGCCCGA
modifications: 2'-F pyrimidines
B12: VP40.26 (ssRNA)
RNA: GGGAGGACGAUGCGGACUCAACUGGACGCUAUGUUGACGGUUAUCGCUUUUGGGUCAGACGACUCGCCCGA
modifications: 2'-F pyrimidines
B13: VP30.58 (ssRNA)
RNA: GGGAGGACGAUGCGGCAACUAUUCGUUGAUGUUUCCGUGAGCCGUCAGACGACUCGCCCGA
modifications: 2'-F pyrimidines
B14: VP40.2 (ssRNA)
RNA: GGGAGGACGAUGCGGAUCUGUGAACUGGGUUUUUGCCGACGGUUACGCUUUUGCUCAGACGACUCGCCCGA
modifications: 2'-F pyrimidines
B15: VP30.11 (ssRNA)
RNA: GGGAGGACGAUGCGGUCAGGAACGGAAUUUUUGGAGACACGCCCUCAGACGACUCGCCCGA
modifications: 2'-F pyrimidines
B16: VP30.23 (ssRNA)
RNA: GGGAGGACGAUGCGGGAGCUUGAAGUUUCAGUAUUGGCACAACCUCAGACGACUCGCCCGA
modifications: 2'-F pyrimidines
B17: VP30.48 (ssRNA)
RNA: B16 RNA with A30G
modifications: 2'-F pyrimidines
B18: VP30.61 (ssRNA)
RNA: B16 RNA with U34C
modifications: 2'-F pyrimidines
B19: VP30.20 (ssRNA)
RNA: GGGAGGACGAUGCGGUUGAUCGGACGUUAGUCAUUUCCCGAUCGUCAGACGACUCGCCCGA
modifications: 2'-F pyrimidines
B20: VP40.36 (ssRNA)
RNA: GGGAGGACGAUGCGGCAGGUUCAGAAUUGGCAGUCGCAUUGAUCUUUUUCACCGCCAGACGACUCGCCCGA
modifications: 2'-F pyrimidines
B21: VP30.40 (ssRNA)
RNA: GGGAGGACGAUGCGGAAACGGAAGAAUUGGAUACGCAAGCACGUUCAGACGACUCGCCCGA
modifications: 2'-F pyrimidines
B22: VP30.14 (ssRNA)
RNA: GGGAGGACGAUGCGGACUGGGAGAAUCCGAAAAACCUUCACGCGUCAGACGACUCGCCCGA
modifications: 2'-F pyrimidines
B23: VP30.18 (ssRNA)
RNA: GGGAGGACGAUGCGGAUCCAUCAUUUAACCGUUUGCUCUCCCCCUCAGACGACUCGCCCGA
modifications: 2'-F pyrimidines
B24: VP30.67 (ssRNA)
RNA: GGGAGGACGAUGCGGUUAACGGAAUUCUUGGAUACAUAGCAUGGUCAGACGACUCGCCCGA
modifications: 2'-F pyrimidines
B25: t44 (ssRNA)
RNA: GCGGAAUCAGUGAAUGCUUAUACAUCCGC
modifications: 2'-F pyrimidines, N30 = 3'-3' inverted dT [30 = 3'-3' inverted dT (N replaced by T); 2'-F pyrimidines at 2,7,8,11,15,17,18,19,21,23,25,26,27,29]
B26: t22 (ssRNA)
RNA: GACGAUGCGGUAGGAAGAAUUGGAAGCGC
modifications: 2'-F pyrimidines, N30 = 3'-3' inverted dT [30 = 3'-3' inverted dT; all C/U at 1-29 = 2'-F]
B27: t2c (ssRNA)
RNA: GAACCGAUGGAAUUUUUGGACGCUC
modifications: 2'-F pyrimidines, N26 = 3'-3' inverted dT [26 = 3'-3' inverted dT (N replaced by T); 2'-F pyrimidines at 4,5,8,13,14,15,16,17,21,23,24,25]
B28: t2d (ssRNA)
RNA: AACCGAUGGAAUUUUUGGACGCU
modifications: 2'-F pyrimidines, N24 = 3'-3' inverted dT [24 = 3'-3' inverted dT (N replaced by T); 2'-F pyrimidines at 3,4,7,12,13,14,15,16,20,22,23]

These binders were tested against T1, VEGF165 (Homo sapiens, UniProt P15692-4 P15692-4:27-191) (assay: filter; 37 C). Conditions: tags: carrier-free, Sf 21 insect cell expressed, R & D Systems; chain copies: 2 (inferred).
Description: (§1) Nucleic Acid Ligands radiolabeled during transcription by incorporation of α-[³²P]-labeled NTPs, or after synthesis using γ-[³²P]-ATP and T4 polynucleotide kinase, were incubated in low concentration (between 20 and 70 pM) with varying concentrations of VEGF or other growth factors at 37° C. for 15 minutes. Incubations were in TBS, PBS, or HEPES-buffered saline (HBS), pH 7.4, with or without the addition of supplemental divalent cations. Samples were passed through prewashed 0.45 μ Type HA filters (Millipore) followed by a 5-10 ml wash with binding buffer. Filters were immersed in scintillant and counted to quantitate the amount of protein-bound RNA retained by each filter. The equilibrium dissociation constant (KD) of Nucleic Acid Ligand binding to a specific protein was calculated from the data points as described in Green et al. (1996) Biochem. 35: 14413-14424.

T1 sequence (P15692 other isoform, or with tags, fused parts or gaps): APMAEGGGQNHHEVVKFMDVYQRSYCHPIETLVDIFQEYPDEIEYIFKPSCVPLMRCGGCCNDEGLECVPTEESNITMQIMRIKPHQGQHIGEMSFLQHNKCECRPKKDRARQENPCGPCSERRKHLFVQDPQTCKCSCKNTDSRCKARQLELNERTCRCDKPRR

Point of comparison: B21, Kd 0.006 nM. Against it:
- B1 — 2-fold higher, 0.012 nM
- B2 — 5.5-fold higher, 0.033 nM
- B3 — 830-fold higher, 5 nM
- B4 — the same, 0.006 nM
- B5 — 67-fold higher, 0.4 nM
- B6 — 160-fold higher, 0.98 nM
- B7 — 3.2-fold higher, 0.019 nM
- B8 — 120-fold higher, 0.74 nM
- B9 — 330-fold higher, 2 nM
- B10 — 3.3-fold higher, 0.02 nM
- B11 — 2.7-fold higher, 0.016 nM
- B12 — 2.2-fold higher, 0.013 nM
- B13 — the same, 0.006 nM
- B14 — 5.8-fold higher, 0.035 nM
- B15 — 4.2-fold higher, 0.025 nM
- B16 — 10-fold higher, 0.063 nM
- B17 — higher, > 10 nM
- B18 — 7.2-fold higher, 0.043 nM
- B19 — 9.5-fold higher, 0.057 nM
- B20 — 220-fold higher, 1.3 nM
- B22 — 4.2-fold higher, 0.025 nM
- B23 — 4.5-fold higher, 0.027 nM
- B24 — 4-fold higher, 0.024 nM

Target: T1, VEGF165
Assay: filter; 37 C
Conditions: tags: carrier-free, Sf 21 insect cell expressed, R & D Systems; chain copies: 2 (inferred)
Remark: another data set of the same source
Description: as §1
The shared primary and secondary structural motifs that define each sequence family hint at the minimal sequence elements required for high affinity binding to VEGF. Nested truncations of a representative ligand from each family (indicated by gray boxes in Table 2) were produced by chemical synthesis and their relative affinities for VEGF were determined (Table 3). Truncated versions of ligands VP30.22, VP30.2 and VT30.44 were prepared by chemical synthesis and their affinities for VEGF were determined as described in Example 3. Initial truncations (t22, t2, t44) were further refined by synthesis of oligonucleotides with additional bases lacking from the 5′ and/or 3′ ends. In order to initiate the chemical synthesis, the 3′-most nucleotide of several of the ligands was modified either by substitution of 2′-OH-cytidine for 2′-F-cytidine (underlined) or by addition of a 3′-3′-linked deoxythymidine “cap” (asterisks). The length of each oligonucleotide (minus the cap) and its high affinity KD for binding to VEGF are shown.

Point of comparison: CGGUAGGAAGAAUUGGAAGCGC (ssRNA, 2'-F pyrimidines except 2'-OH C22) [t22d], Kd 0.1 nM. Against it:
- ACGAUGCGGUAGGAAGAAUUGGAAGCGC (ssRNA, 2'-F pyrimidines except 2'-OH C28) [t22b] — within 1.5-fold, 0.08 nM
- CGGAAUCAGUGAAUGCUUAUACAUCCG (ssRNA, 2'-F pyrimidines) [t44a] — 10-fold lower, 0.01 nM
- GGAAUCAGUGAAUGCUUAUACAUCC (ssRNA, 2'-F pyrimidines except 2'-OH C25) [t44b] — 1.7-fold lower, 0.06 nM
- GACGAUGCGGUAGGAAGAAUUGGAAGCG (ssRNA, 2'-F pyrimidines) [t22a] — 30-fold higher, 3 nM
- B25 — 10-fold lower, 0.01 nM
- B26 — within 1.5-fold, 0.07 nM
- B27 — 2-fold higher, 0.2 nM
- GCGAACCGAUGGAAUUUUUGGACGCUCGC (ssRNA, 2'-F pyrimidines except 2'-OH C29) [t2a] — 2.5-fold lower, 0.04 nM
- B28 — 200-fold higher, 20 nM
- CGAACCGAUGGAAUUUUUGGACGCUCG (ssRNA, 2'-F pyrimidines) [t2b] — the same, 0.1 nM
- GCGGUAGGAAGAAUUGGAAGCGC (ssRNA, 2'-F pyrimidines except 2'-OH C23) [t22c] — within 1.5-fold, 0.09 nM

Target: T1, VEGF165
Assay: filter; 37 C
Conditions: tags: carrier-free, Sf 21 insect cell expressed, R & D Systems; chain copies: 2 (inferred)
Remark: another data set of the same source
Description: as §1
Stabilization of oligonucleotides to nucleases is likely to be critical to their success as therapeutic or diagnostic agents. Unfortunately, 2′-OMe-modified nucleoside triphosphates are not generally accepted as substrates by RNA polymerases under standard reaction conditions. However, 2′-OMe purines may be introduced into a specific oligonucleotide by chemical synthesis. […] To identify those purine positions for which 2′-OMe substitution is compatible with high affinity binding to VEGF, several syntheses of ligands t2, t22 and t44 were prepared in which five or six purines at a time were partially substituted with the modified nucleotide (described in Example 3). Affinity selection of each partially substituted library was used to isolate those molecules that retained substantial affinity for VEGF.

Point of comparison: GGCGAACCGAUGGAAUUUUUGGACGCUCGCC (ssRNA, 2'-F pyrimidines, 2'-OMe purines except 2'-OH A6) [t2OMe (OH-6)], Kd 0.5 nM. Against it:
- GACGAUGCGGUAGGAAGAAUUGGAAGCGC (ssRNA, 2'-F pyrimidines, 2'-OMe purines except 2'-OH G10, A12) [t22OMe (OH-10,12)] — 25-fold lower, 0.02 nM
- GGCGAACCGAUGGAAUUUUUGGACGCUCGCC (ssRNA, 2'-F pyrimidines, 2'-OMe purines except 2'-OH A6, G21) [t2OMe (OH-6,21)] — 8.3-fold lower, 0.06 nM
- GGCGAACCGAUGGAAUUUUUGGACGCUCGCC (ssRNA, 2'-F pyrimidines, 2'-OMe purines except 2'-OH G21) [t2OMe (OH-21)] — 40-fold higher, 20 nM
- GACGAUGCGGUAGGAAGAAUUGGAAGCGC (ssRNA, 2'-F pyrimidines, 2'-OMe purines except 2'-OH G10, A12, G22) [t22OMe (OH-10,12,22)] — 50-fold lower, 0.01 nM
- GCGGAAUCAGUGAAUGCUUAUACAUCCGC (ssRNA, 2'-F pyrimidines, 2'-OMe purines except 2'-OH A5, A6) [t44OMe (OH-5,6)] — 12-fold lower, 0.04 nM
- GACGAUGCGGUAGGAAGAAUUGGAAGCGC (ssRNA, 2'-F pyrimidines, 2'-OMe purines except 2'-OH A12, G22) [t22OMe (OH-12,22)] — 5.6-fold lower, 0.09 nM
- GACGAUGCGGUAGGAAGAAUUGGAAGCGC (ssRNA, 2'-F pyrimidines, 2'-OMe purines except 2'-OH G10, G22) [t22OMe (OH-10,22)] — 8-fold higher, 4 nM
